± gives the uncertainty stated by the source.
assay: amyloid nucleation score (Sup35N fusion, yeast selection) (log enrichment); library NNK3; higher = more nucleation; inactive = no reads after selection
Procedure, shortened: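 The nucleation score is a DiMSum log enrichment of output over input reads, centred on the mode score of non-aggregating sequences. Sequences under 100 input reads were excluded, and reads came from Illumina sequencing of plasmid inserts. Psi-negative yeast expressing Sup35N fused to peptides of 20 random codons were induced with 100 μM copper sulfate for 24 hours and grown 7 days at 30°C on medium lacking adenine and uracil. Random libraries had three technical output replicates.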

Row | Substance | amyloid nucleation score
1 | NSRARSSYRIMNWWLLFDMT | inactive
2 | NSRRCRNFASHRWPPEFRNS | inactive
3 | NSRSFNTFKYNYGMLGFGVA | -0.612 ± 0.84
4 | NSRYQILITLDLC | inactive
5 | NSVVSGFLGHVLVGRRCGHR | inactive
6 | NSWDYYVAWPFVRFG | -0.947 ± 0.98
7 | NSYIFVQALMTFGDLTWAFH | 2.34 ± 0.073
8 | NTINVSPVLIDN | inactive
9 | NTIRKKNLLFQAWLC | inactive
10 | NTIVLILHYFYNSMLASSVI | inactive
11 | NTLKSV | inactive
12 | NTRLSMAF | inactive
13 | NTSYSRMVCSKG | inactive
14 | NTTFS | inactive
15 | NVANRGLLHMELSVNKDWAM | 0.699 ± 0.16
16 | NVDDLGFLFIVDAYINCHFR | 1.58 ± 0.12
17 | NVDVYVGVPAQVGFVILFWT | -0.241 ± 0.61
18 | NVECSCDPEKTFIPKSVSLK | 0.102 ± 0.63
19 | NVGWIWPYM | inactive
20 | NVLLYNRKGQFSKCLCKSVD | inactive
21 | NVMVISMMTSR | inactive
22 | NVQQALIHVSAHGCRFFLTC | 2.71 ± 0.065
23 | NVRFDGKVWLG | 0.744 ± 0.31
24 | NVRSNFLVADVVVFVRKIVR | 2.42 ± 0.072
25 | NVRVYSFQMTVECKELLDSQ | inactive
26 | NVSQFISIGVVITFKMLLVW | -0.478 ± 0.68
27 | NVSRRGC | inactive

Row | Substance | amyloid nucleation score
28 | NVTTVFNKIPLPDSFNMRRW | 1.28 ± 0.084
29 | NWCILTLNGVSGRIRLPCWS | 0.405 ± 0.19
30 | NWDFFKLKVNSHLTYAHDHR | inactive
31 | NWDTNFVYSIGIDIY | inactive
32 | NWFCRGVIELPHPYAQTNFS | inactive
33 | NWIVGSWCKVLSVVEKEW | 0.101 ± 0.62
34 | NWKLPGFPNLVQRITTDSPL | inactive
35 | NWPGMLFNLSLVERRSWRRN | inactive
36 | NWRLFWG | 1.6 ± 0.077
37 | NWSVHTGIDKVKADDGEFQL | inactive
38 | NWVQKRPGQRHFNIASNCV | inactive
39 | NWVVFFTYMAHHE | 0.166 ± 0.26
40 | NWYSLKGVISNFSAVFSHGY | inactive
41 | NYFQFLKENFVARNKESRRG | inactive
42 | NYKVRLNQDFENRHRYSMDT | inactive
43 | NYLFRT | inactive
44 | NYLGVTYCSYSS | inactive
45 | NYLRLFLISIAYKSVLSVML | inactive
46 | NYLVYSCDVRYSYMVSELAS | inactive
47 | NYLYVELIWLHFSSMALRDD | inactive
48 | NYMYGLRGSRLQFGMFRFGG | inactive
49 | NYSAFRGSMIV | inactive
50 | NYSFWLAIYSPCRSKCYARC | 1.58 ± 0.057
51 | NYSMNARGPVKDLAVFGSRG | inactive
52 | NYYFT | inactive
53 | NYYLGETLA | inactive
54 | PCKDLQTYWFENWCQRFGR | inactive

Row | Substance | amyloid nucleation score
55 | PCLFSQDRVRKTRSHKVNAE | inactive
56 | PCPLGPYLGYFTETSYAHGM | inactive
57 | PCVYWSLNCSVVIIFSTRLL | inactive
58 | PDDSRRNPRFG | inactive
59 | PDLIHFTCLSSWFSSVVALV | inactive
60 | PDNFNSRFNTRFKTHTRHPT | inactive
61 | PDRLFLDTGSTWFKYMMSCL | -1.12 ± 1.4
62 | PDRMIGGLSFRKFDISCPYA | inactive
63 | PDTLRRNRVSRFTFAKRCGL | -0.769 ± 0.98
64 | PDVFYILVTALWDVRNSNSF | inactive
65 | PDWVVPDGGIVTGIVGWCSG | inactive
66 | PEFDLCDINSSLGSMRFWQW | inactive
67 | PFCFELSWGYGKNKVATMRY | inactive
68 | PFCRMKLGMTLRALLLVMGS | inactive
69 | PFGVKSMLAVYTHYVFGATV | inactive
70 | PFPRNGLFHLFWYGLCYMAL | inactive
71 | PFSSLASVVPLRGFG | inactive
72 | PFTACWVSVADNPYPSNKTG | inactive
73 | PFWELYKDFSSICRLTQEGY | inactive
74 | PGKYGLV | inactive
75 | PGLIVF | inactive
76 | PGSLI | -0.219 ± 0.52
77 | PHMNWSYVPQF | inactive
78 | PIAFSIALPRVVCRQ | inactive
79 | PIFFCFNDVWTGNVVLDAMG | 3.05 ± 0.058
